In patent US20020039573A1:
Blank lines part the entries; values can stand above or below the substance they belong to.

Experiments:
Experiment in all cases: cell-based or functional assay
[1] = target: HLA-A2 (human)
[2] = target: HLA-B and -C
[3] = target: HLA-A, -B and -C

- γ-IFN Elispot, ICD-specific CD8+ T cell line on Fibro/ICD stimulators pre-incubated with antibody (50 µg/mL) (Elispot spots per well) [1]: 213
- γ-IFN Elispot, clone 17D5 on Fibro/ICD stimulators, antibody at 25 µg/mL (Elispot spots per well) [1]: 165
- γ-IFN Elispot, clone 17D5 on Fibros-H2N stimulators, antibody at 25 µg/mL (Elispot spots per well) [1]: 98
Substance: monoclonal antibody BB7.2

- γ-IFN Elispot, ICD-specific CD8+ T cell line on Fibro/ICD stimulators pre-incubated with antibody (50 µg/mL) (Elispot spots per well) [2]: 5
- γ-IFN Elispot, clone 17D5 on Fibro/ICD stimulators, antibody at 25 µg/mL (Elispot spots per well) [2]: 1
- γ-IFN Elispot, clone 17D5 on Fibros-H2N stimulators, antibody at 25 µg/mL (Elispot spots per well) [2]: 0
Substance: monoclonal antibody BB123.2

- γ-IFN Elispot, ICD-specific CD8+ T cell line on Fibro/ICD stimulators pre-incubated with antibody (50 µg/mL) (Elispot spots per well) [3]: 4
- γ-IFN Elispot, clone 17D5 on Fibro/ICD stimulators, antibody at 25 µg/mL (Elispot spots per well) [3]: 3
- γ-IFN Elispot, clone 17D5 on Fibros-H2N stimulators, antibody at 25 µg/mL (Elispot spots per well) [3]: 0
Substance: monoclonal antibody W6/32
